The source of these data is patent US20240150465A1 (Chugai, published 2024).

Assay [1] concerns the target T1, recombinant human DLL3 (human, UniProt Q9NYJ7 27-492).
T1 sequence: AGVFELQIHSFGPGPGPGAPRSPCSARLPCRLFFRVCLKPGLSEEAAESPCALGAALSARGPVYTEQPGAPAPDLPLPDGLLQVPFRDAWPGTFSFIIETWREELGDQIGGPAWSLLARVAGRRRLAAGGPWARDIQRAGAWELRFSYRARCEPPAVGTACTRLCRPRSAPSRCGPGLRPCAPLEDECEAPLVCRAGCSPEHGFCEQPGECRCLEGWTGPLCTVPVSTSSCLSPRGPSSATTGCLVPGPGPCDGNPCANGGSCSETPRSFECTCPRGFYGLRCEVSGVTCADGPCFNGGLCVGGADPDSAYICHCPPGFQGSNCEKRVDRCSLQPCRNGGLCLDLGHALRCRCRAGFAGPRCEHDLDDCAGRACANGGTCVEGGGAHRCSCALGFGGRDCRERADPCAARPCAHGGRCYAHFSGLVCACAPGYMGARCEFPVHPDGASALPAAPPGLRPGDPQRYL
The assay can be described thus: Octet binning on SA sensor; Antibody A (biotinylated, loaded first): D30841AE05-SG1; then 20 nM human DLL3, then 80 nM Antibody B. The method, then:
(§1) Octet (registered trademark) RED384 (Fortebio) was used to perform competitive binding assays by epitope binning for a panel of antibodies. A biotinylated antibody (DL301-SG1, DL306-SG1, DL309-SG1, DL312-SG1, D30316AE02-SG1, and D30841AE05-SG1) at 40 nM was first loaded to a streptavidin (SA) biosensor. Next, the sensor is exposed to 20 nM of human DLL3, followed by exposure to 80 nM of second antibody. The second antibodies are DL301-SG1, DL306-SG1, DL309-SG1, DL312-SG1, D30316AE02-SG1, D30841AE05-SG1, DLL3-14-SG1, DLL3-22-SG1, DLL3-4-SG1 and DLL3-6-SG1. Raw data was processed using ForteBio's Data Analysis Software 7.0 and the antibody pairs were assessed for competitive binding. Additional binding by the second antibody indicates an unoccupied epitope (non-competitor), while no binding indicates epitope blocking (competitor).
(§2) The competition ratio of antibody B to antibody A was calculated using the following equation: Competition Ratio (Antibody B to Antibody A)=[Binding Response (Antibody B-Antigen)]/[Binding Response (Antigen-Antibody A)]
Background: In BLI a coated tip is dipped into the sample, and binding shifts an interference pattern.

In assay [2] the target is T1, recombinant human DLL3. The assay can be described thus: Octet binning on SA sensor; Antibody A (biotinylated, loaded first): DL312-SG1; then 20 nM human DLL3, then 80 nM Antibody B. The method, then:
as §1, §2

For assay [3], the target named is T1, recombinant human DLL3. The assay can be described thus: Octet binning on SA sensor; Antibody A (biotinylated, loaded first): DL301-SG1; then 20 nM human DLL3, then 80 nM Antibody B. The protocol: as §1, §2
For assay [4], the target named is T1, recombinant human DLL3. In words: Octet binning on SA sensor; Antibody A (biotinylated, loaded first): D30316AE02-SG1; then 20 nM human DLL3, then 80 nM Antibody B. The method, then:
as §1, §2

In assay [5] the target is T1, recombinant human DLL3. In words: Octet binning on SA sensor; Antibody A (biotinylated, loaded first): DL306-SG1; then 20 nM human DLL3, then 80 nM Antibody B. The protocol:
as §1, §2

Assay [6] addresses T1, recombinant human DLL3. The assay can be described thus: Octet binning on SA sensor; Antibody A (biotinylated, loaded first): DL309-SG1; then 20 nM human DLL3, then 80 nM Antibody B. The protocol:
as §1, §2

Residue numbers refer to the chain shown, from its start.

B1: DL306-SG1 (antibody, human IgG1, kappa, V domains shown)
VH: EVQLQQSGPELVKPGASVKMSCRASGYTFTDYYMKWVKQSHGKSLEWIGDINPNNGDTFYNQKFKGKATLTIDKSSSTAYMQLNSLTSDDSAVYYCARDGNYAYFDYWGQGTTLTVSS
VL: DIVLTQSPASLAVSLGQRATISCRASKSVSTSGYSYMHWYQQKPGQPPKLLIFLASNLESGVPARFSGSGSGTDFTLNIHPVEEEDAATYYCQHSRHLPWTFGGGTKLEIKR
notes: Variable regions of a previously reported anti-DLL3 antibody on SG1/SK1; Also used biotin-labelled as a first antibody
Regarding B1, the “competition ratio (Antibody B to Antibody A)” value (“competition ratio” for short) in the assay with recombinant human DLL3 [1] was 0; with recombinant human DLL3 [2], 1.2; with recombinant human DLL3 [3], 1.1; with recombinant human DLL3 [4] it was 1.5; in the assay with recombinant human DLL3 [5], 0; in the assay with recombinant human DLL3 [6], 0.9.

B2: DL309-SG1 (antibody, human IgG1, kappa, V domains shown)
VH: QVQLQQSGGDLMKPGASVKISCKAAGYTFSNYYIEWVKQRPGHGLEWIGEILPGSGSTTYNEKFKGKASFTADTSSNTAYMQLSSLTSEDSAVYYCARWGAREPGFPYWGQGTLVTVSA
VL: DIVMTQSQKFMSTSVGDRVSVTCKASQNVGTNVAWYQQKPGQSPKALIYSASYRYSGVPDRFTGSGSGTDFTLTISNVQSEDLAEYFCQQYNNYPLTFGAGTKLELKR
notes: as for B1
Regarding B2, the “competition ratio” value was 1.5 with recombinant human DLL3 [1]; 1.5 with recombinant human DLL3 [2]; 1.4 with recombinant human DLL3 [3]; 1.4 in the assay with recombinant human DLL3 [4]; 1.4 with recombinant human DLL3 [5]; -0.1 in the assay with recombinant human DLL3 [6].

B3: DL312-SG1 (antibody, human IgG1, kappa, V domains shown)
VH: EVKLVESGGGLVQPGGSLSLSCAASGFTFTDYYMNWVRQPPGKALEWLALIRNKANGYTTEYNASVKGRFTISRDNSQNILYLQMNALRAEDSATYYCARDSDGYYEYYFDYWGQGTTLTVSS
VL: DIQMTQSPSSLSASLGERVSLTCRASQEISDYLSWLQQKPDGTIKRLIFAASTLDSGVPKRFSGSRSGSDFSLSISSLESEDFADYYCLQYASYPYTFGSGTKLEIKR
notes: as for B1
As to B3, the “competition ratio” value was determined as 1.4 with recombinant human DLL3 [1]; 0.2 with recombinant human DLL3 [2]; 1 with recombinant human DLL3 [3]; 1.4 with recombinant human DLL3 [4]; 1.4 in the assay with recombinant human DLL3 [5]; 1.1 with recombinant human DLL3 [6].

B4: DL301-SG1 (antibody, human IgG1, kappa, V domains shown)
VH: QVQLQQSGADLVRPGTSVKVSCKASGYAFTNYLIEWIKQRPGQGLEWIGVMNPGSGGTHYSEKFRGKATLTADKSSSTAYMQLISLTSDDSAVYFCARSDYDYVTYAMDYWGQGTSVTVSS
VL: DIKMTQSPSSMYASLGERVTITCKASQDINSYLIWFQQKPGKSPKTLIYRTNRLVDGVPSRFSGSGSGQDYSLTISSLEYGDMGIYYCLQYDEFPFTFGSGTKLEIKR
notes: as for B1
For the molecule B4, the “competition ratio” value is 1.3 in the assay with recombinant human DLL3 [1]; 1.3 in the assay with recombinant human DLL3 [2]; -0.1 with recombinant human DLL3 [3]; 1.3 in the assay with recombinant human DLL3 [4]; 1.3 with recombinant human DLL3 [5]; 1.2 with recombinant human DLL3 [6].

B5: DLL3-14-SG1 (antibody, human IgG1, kappa, V domains shown)
VH: QVQLVQSGAEVKKPGASVKVSCKASGYTFTNYYMHWVRQAPGLGLEWMGIINPSDGSTSYAQKFQGRVTMTRDTSTNTVYMDLSSLRSEDTAVYYCARGGNSAFYSYYDMDVWGQGTTVTVSS
VL: DVVMTQTPLSLPVTLGQPASISCRSSQSLVYRDGNTYLSWFQQRPGQSPRRLIYKVSNWQSGVPDRFSGGGSGTDFTLKISRVEAEDVGVYYCMQGTHWPPTFGQGTKVEIKR
notes: Variable regions of a previously reported anti-DLL3 antibody on SG1/SK1; Used as a second antibody only
Consider B5, for which the “competition ratio” value with recombinant human DLL3 [1] worked out at 1.4; with recombinant human DLL3 [2], 1.5; in the assay with recombinant human DLL3 [3], 1.2; with recombinant human DLL3 [4], 1.4; with recombinant human DLL3 [5] it was 1.4; with recombinant human DLL3 [6], 1.

B6: D30841AE05-SG1 (antibody, human IgG1, kappa, V domains shown)
VH: QVQLKESGPALVKPTQTLTLTCTFSGFSLSSSYDMGWVRQAPGQGLEWMGTIYTGDYSTDYASWAKGRVTITADESTSTAYMELSSLRSEDTAVYYCARNTGYGYFGLWGQGTLVTVSS
VL: DIQLTQSPSFLSASVGDRVTITCQSTESVYGSDWLSWYQQKPGQPPKLLIYQASNLEIGVPSRFSGSGSGTDFTLTINSLEAEDAATYYCQGYYSGYIYAFGGGTKVEIKR
notes: Humanized variant of DLA0841 with SG1 heavy and SK1 light constant regions; Labelled with NHS-PEG4-Biotin when used as the first (immobilized) antibody in the Octet assay
Regarding B6, the “competition ratio” value was 0 in the assay with recombinant human DLL3 [1]; 1.1 with recombinant human DLL3 [2]; 0.9 with recombinant human DLL3 [3]; 1.3 in the assay with recombinant human DLL3 [4]; -0.1 with recombinant human DLL3 [5]; 0.8 in the assay with recombinant human DLL3 [6].

B7: DLL3-6-SG1 (antibody, human IgG1, kappa, V domains shown)
VH: QVQLQESGPGLVKPSETLSLTCTVSGASISSFYWSWIRQPPGKGLEWIGYIYYSGTTNYNPSLKSRVTISVDTSKNQFSLKLSSVTAADTAVYYCARIAVAGFFFDYWGQGTLVTVSS
VL: EIVLTQSPGTLSLSPGERATLSCRASQSVNKNYLAWYQQKPGQAPRLLIYGASSRATGIPDRFSGSGSGTDFTLTISRLEPEDFAVYYCQQYDRSPLTFGGGTKVEIKR
notes: as for B5
B7: the “competition ratio” value with recombinant human DLL3 [1] was determined as 1.3; in the assay with recombinant human DLL3 [2], 1.3; with recombinant human DLL3 [3], 1.2; in the assay with recombinant human DLL3 [4] it was 1.3; in the assay with recombinant human DLL3 [5] it was 1.3; in the assay with recombinant human DLL3 [6], 1.

B8: DLL3-4-SG1 (antibody, human IgG1, kappa, V domains shown)
VH: B7 VH with A27G, F32Y, I51V, R97S, A101T, F104Y
VL: B7 VL with A19V, S28R, K31N, K40R, V105L
notes: as for B5
For B8, the “competition ratio” value with recombinant human DLL3 [1] was 1.3; with recombinant human DLL3 [2], 1.3; in the assay with recombinant human DLL3 [3], 1.2; with recombinant human DLL3 [4], 1.3; with recombinant human DLL3 [5], 1.3; with recombinant human DLL3 [6], 1.

B9: DLL3-22-SG1 (antibody, human IgG1, kappa, V domains shown)
VH: B7 VH with A27D, F32Y, S35T, N76S, R97S, A101R
VL: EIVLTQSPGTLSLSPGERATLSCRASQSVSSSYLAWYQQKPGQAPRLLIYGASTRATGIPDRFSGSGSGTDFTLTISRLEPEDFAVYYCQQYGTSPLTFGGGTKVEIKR
notes: as for B5
As for B9, the “competition ratio” value with recombinant human DLL3 [1] stood at 1.3; with recombinant human DLL3 [2] it was 1.3; in the assay with recombinant human DLL3 [3] it was 1.2; in the assay with recombinant human DLL3 [4], 1.3; with recombinant human DLL3 [5], 1.3; with recombinant human DLL3 [6] it was 0.9.
